Here are results for six molecules from patent publication US6958236B2, “Control of gene expression in plants” (priority 2000, dated 2005).

This assay has as its system pCGS154 reporter. The assay can be described thus: Transient transfection of S2 Drosophila cells with luciferase reporter and EcR receptor plasmids. The class given is cell-based. Conditions: for No Chemistry (luciferase activity as ratio to pCGS154 reporter without chemistry): reporter CGS154, no chemical ligand; for Assay # 1 Fold Activation With Chemistry / Assay # 2 Fold Activation With Chemistry: Example 6, 0.2 μM tebufenozide vs without chemistry, normalized to pCGS154 reporter without receptor. Here is the method: An in vivo cell based assay is designed to measure transcriptional activation by the receptors of a reporter plasmid. S2 Drosophila cells (ATCC CRL-1963) are transiently transfected with luciferase reporter and receptor expression plasmids using the calcium phosphate precipitation procedure (Di Nocera and David (1983) PNAS 80, 7095-7098). S2 cells are plated in 96 well format at a density of 2×10^5 in 166.6 μl of Schneider's Drosophila media supplemented with antibiotics and 10% heat inactivated fetal bovine serum (GIBO-BRL). The following day, 33.4 μl of a calcium phosphate precipitate containing 3-6 ng of pCGS154 reporter plasmid, 3-6 ng of EcR receptor plasmid along with salmon sperm DNA to a total of 400 ng DNA per well is added. Chemical ligands are added 16-24 hours after DNA addition to the cells. Cells are then harvested and extracted 24 hours after chemistry addition following the procedures for the luciferase assay by centrifuging and resuspending the cell pellets in 100 μl of cell culture lysis reagent (Promega). Luciferase activity is quantitated using chemiluminescence (Promega) using an analytical luminescence model 2001 luminometer.
S2 cells contain Drosophila EcR and USP. The endogenous USP can be used as the heterodimerization partner for EcR or exogenous USP expression plasmid can be added to the assay.
To compare the activities of Manduca and Drosophila EcR, S2 cells are transiently transfected using the above procedure with the reporter plasmid pCGS 154 and either full-length Drosophila EcR, DDV, full-length Manduca EcR, or MMV. Tebufenozide at 0.2 µM and 2 μM is used as the chemical ligand. Luciferase assays are performed as described above. All of the results are normalized as a ratio of activity to the light unit value for the pCGS154 reporter without chemistry.
The activities of the EcR-VP16 chimeras are compared by transiently transfecting S2 cells as described in Example 3. Tebufenozide is added to the cells at 0.2 μM concentration. Results are expressed as fold activation, a ratio of the activity of the constructs with chemistry added as compared to activity of the constructs without chemistry. All results are normalized to the luciferase activity of the pCGS154 reporter without receptor addition.
The activities of the EcR-VP16 chimeras are compared by transiently transfecting S2 cells as in Example 3. Tebufenozide is added to the cells at 0.2 μM concentration. Results are expressed as fold activation of constructs with chemistry as compared to without chemistry. All results are normalized to the luciferase activity of the pCGS154 reporter without receptor.
The activities of the EcR-VP16 chimeras are compared by transiently transfecting S2 cells as in Example 3. Tebufenozide is added to the cells at 0.2 μM concentration. Results are expressed as fold activation of constructs with chemistry as compared to without chemistry addition. All results are normalized to the luciferase activity of the pCGS154 reporter without receptor.
In general terms: Reporter assays use an easily measured gene product as a stand-in for the process of interest.

B1: MaFL: full-length Manduca EcR expression cassette in pPacU (protein, UniProt P49883 1-556, looked up)
chain: MRRRWSNNGCFPLRMFEESSSEVTSSSAFGMPAAMVMSPESLASPEYGGLELWSYDETMTNYPAQSLLGACNAPQQQQQQQQQQPSAQPLPSMPLPMPPTTPKSENESMSSGREELSPASSINGCSTDGEPRRQKKGPAPRQQEELCLVCGDRASGYHYNALTCEGCKGFFRRSVTKNAVYICKFGHACEMDMYMRRKCQECRLKKCLAVGMRPECVVPESTCKNKRREKEAQREKDKLPVSTTTVDDHMPAIMQCDPPPPEAARIHEVVPRFLTEKLMEQNRLKNVTPLSANQKSLIARLVWYQEGYEQPSEEDLKRVTQTWQLEEEEEEETDMPFRQITEMTILTVQLIVEFAKGLPGFSKISQSDQITLLKASSSEVMMLRVARRYDAATDSVLFANNQAYTRDNYRKAGMSYVIEDLLHFCRCMYSMSMDNVHYALLTAIVIFSDRPGLEQPLLVEEIQRYYLKTLRVYILNQHSASPRCAVLFGKILGVLTELRTLGTQNSNMCISLKLKNRKLPPFLEEIWDVAEVSTTQPTPGVAAQVTPIVVDNPAAL
modifications: full-length
notes: full-length Manduca EcR expression cassette in pPacU
With B1, the “No Chemistry (luciferase activity as ratio to pCGS154 reporter without chemistry)” value came out at 1.

B2: DDV: EcR chimera: Drosophila melanogaster C+D and E domains, VP16; SEQ ID NO:95-96 (protein)
chain: MGRDDLSPSSSLNGYSANESCDAKKSKKGPAPRVQEELCLVCGDRASGYHYNALTCEGCKGFFRRSVTKSAVYCCKFGRACEMDMYMRRKCQECRLKKCLAVGMRPECVVPENQCAMKRREKKAQKEKDKMTTSPSSQHGGNGSLASGGGQDFVKKEILDLMTCEPPQHATIPLLPDEILAKCQARNIPSLTYNQLAVIYKLIWYQDGYEQPSEEDLRRIMSQPDENESQTDVSFRHITEITILTVQLIVEFAKGLPAFTKIPQEDQITLLKACSSEVMMLRMARRYDHSSDSIFFANNRSYTRDSYKMAGMADNIEDLLHFCRQMFSMKVDNVEYALLTAIVIFSDRPGLEKAQLVEAIQSYYIDTLRIYILNRHCGDSMSLVFYAKLLSILTELRTLGNQNAEMCFSLKLKNRKLPKFLEEIWDVHAIPPKLAPPTDVSLGDELHLDGEDVAMAHADALDDFDLDMLGDGDSPGPGFTPHDSAPYGALDMADFEFEQMFTDALGIDEYGG
For the molecule B2, the “Assay # 1 Fold Activation With Chemistry” value came to 1.01 fold, the “Assay # 2 Fold Activation With Chemistry” value stood at 0.68 fold and the “No Chemistry (luciferase activity as ratio to pCGS154 reporter without chemistry)” value came out at 1.

B3: DMV: EcR chimera: Drosophila melanogaster C+D domains, Manduca sexta E domain, VP16; SEQ ID NO:71-72 (protein)
chain: MGRDDLSPSSSLNGYSANESCDAKKSKKGPAPRVQEELCLVCGDRASGYHYNALTCEGCKGFFRRSVTKSAVYCCKFGRACEMDMYMRRKCQECRLKKCLAVGMRPECVVPENQCAMKRREKKAQKEKDKMTTSPSSQHGGNGSLASGGGQDFVKKEILDLMTCEPPQHATIPLLPDEILAKCQARNIPSLTYNQLAVIYKLIWYQEGYEQPSEEDLKRVTQTWQLEEEEEEETDMPFRQITEMTILTVQLIVEFAKGLPGFSKISQSDQITLLKASSSEVMMLRVARRYDAATDSVLFANNQAYTRDNYRKAGMSYVIEDLLHFCRCMYSMSMDNVHYALLTAIVIFSDRPGLEQPLLVEEIQRYYLKTLRVYILNQHSASPRCAVLFGKILGVLTELRTLGTQNSNMCISLKLKNRKLPPFLEEIWDVAEVSTTKLAPPTDVSLGDELHLDGEDVAMAHADALDDFDLDMLGDGDSPGPGFTPHDSAPYGALDMADFEFEQMFTDALGIDEYGG
Regarding B3, the “Assay # 1 Fold Activation With Chemistry” value stood at 8.67 fold and the “Assay # 2 Fold Activation With Chemistry” value is listed as 3.72 fold.

B4: LMV: EcR chimera: Locusta migratoria C+D domains, Manduca sexta E domain, VP16; SEQ ID NO:83-84 (protein)
chain: MGREDLSPLSSLNGYSADSCDAKKKKGAAPRQQEELCLVCGDRASGYHYNALTCEGCKGFFRRSITKNAVYQCKYGNNCEIDMYMRRKCQECRLKKCLTVGMRPECVVPEYQCAVKRKEKKAQKDKDKPNSTTNGSPEVMMLKDIDAKVEPERPLSNGIKPVSPEQEELIHRLVWYQEGYEQPSEEDLKRVTQTWQLEEEEEEETDMPFRQITEMTILTVQLIVEFAKGLPGFSKISQSDQITLLKASSSEVMMLRVARRYDAATDSVLFANNQAYTRDNYRKAGMSYVIEDLLHFCRCMYSMSMDNVHYALLTAIVIFSDRPGLEQPLLVEEIQRYYLKTLRVYILNQHSASPRCAVLFGKILGVLTELRTLGTQNSNMCISLKLKNRKLPPFLEEIWDVAEVSTTKLAPPTDVSLGDELHLDGEDVAMAHADALDDFDLDMLGDGDSPGPGFTPHDSAPYGALDMADFEFEQMFTDALGIDEYGG
Take B4: the “Fold Activation With Chemistry” value (Example 6, third column (LLV, LMV), 0.2 μM tebufenozide) turned out to be 48.8 fold.

B5: DrosFL: full-length Drosophila EcR expression cassette in pPacU (protein, UniProt P34021 1-878, looked up)
chain: MKRRWSNNGGFMRLPEESSSEVTSSSNGLVLPSGVNMSPSSLDSHDYCDQDLWLCGNESGSFGGSNGHGLSQQQQSVITLAMHGCSSTLPAQTTIIPINGNANGNGGSTNGQYVPGATNLGALANGMLNGGFNGMQQQIQNGHGLINSTTPSTPTTPLHLQQNLGGAGGGGIGGMGILHHANGTPNGLIGVVGGGGGVGLGVGGGGVGGLGMQHTPRSDSVNSISSGRDDLSPSSSLNGYSANESCDAKKSKKGPAPRVQEELCLVCGDRASGYHYNALTCEGCKGFFRRSVTKSAVYCCKFGRACEMDMYMRRKCQECRLKKCLAVGMRPECVVPENQCAMKRREKKAQKEKDKMTTSPSSQHGGNGSLASGGGQDFVKKEILDLMTCEPPQHATIPLLPDEILAKCQARNIPSLTYNQLAVIYKLIWYQDGYEQPSEEDLRRIMSQPDENESQTDVSFRHITEITILTVQLIVEFAKGLPAFTKIPQEDQITLLKACSSEVMMLRMARRYDHSSDSIFFANNRSYTRDSYKMAGMADNIEDLLHFCRQMFSMKVDNVEYALLTAIVIFSDRPGLEKAQLVEAIQSYYIDTLRIYILNRHCGDSMSLVFYAKLLSILTELRTLGNQNAEMCFSLKLKNRKLPKFLEEIWDVHAIPPSVQSHLQITQEENERLERAERMRASVGGAITAGIDCDSASTSAAAAAAQHQPQPQPQPQPSSLTQNDSQHQTQPQLQPQLPPQLQGQLQPQLQPQLQTQLQPQIQPQPQLLPVSAPVPASVTAPGSLSAVSTSSEYMGGSAAIGPITPATTSSITAAVTASSTTSAVPMGNGVGVGVGVGGNVSMYANAQTAMALMGVALHSHQEQLIGGVAVKSEHSTTA
modifications: full-length
notes: full-length Drosophila EcR expression cassette in pPacU
Consider B5, for which the “No Chemistry (luciferase activity as ratio to pCGS154 reporter without chemistry)” value worked out at 1.

B6: MMV: EcR chimera: Manduca sexta C+D and E domains, VP16; SEQ ID NO:93-94 (protein)
chain: MGREELSPASSINGCSTDGEPRRQKKGPAPRQQEELCLVCGDRASGYHYNALTCEGCKGFFRRSVTKNAVYICKFGHACEMDMYMRRKCQECRLKKCLAVGMRPECVVPESTCKNKRREKEAQREKDKLPVSTTTVDDHMPAIMQCDPPPPEAARIHEVVPRFLTEKLMEQNRLKNVTPLSANQKSLIARLVWYQEGYEQPSEEDLKRVTQTWQLEEEEEEETDMPFRQITEMTILTVQLIVEFAKGLPGFSKISQSDQITLLKASSSEVMMLRVARRYDAATDSVLFANNQAYTRDNYRKAGMSYVIEDLLHFCRCMYSMSMDNVHYALLTAIVIFSDRPGLEQPLLVEEIQRYYLKTLRVYILNQHSASPRCAVLFGKILGVLTELRTLGTQNSNMCISLKLKNRKLPPFLEEIWDVAEVSTTKLAPPTDVSLGDELHLDGEDVAMAHADALDDFDLDMLGDGDSPGPGFTPHDSAPYGALDMADFEFEQMFTDALGIDEYGG
For B6, the “Assay # 1 Fold Activation With Chemistry” value worked out at 87.65 fold, the “Assay # 2 Fold Activation With Chemistry” value worked out at 151.06 fold and the “No Chemistry (luciferase activity as ratio to pCGS154 reporter without chemistry)” value is 1. Further, under “Example 7, 0.2 μM tebufenozide”, the “Fold Activation With Chemistry Assay #1” value is reported as 719.2 fold and the “Fold Activation With Chemistry Assay #2” value was found to be 595.1 fold.
